T1: MutS (Bacillus subtilis, UniProt P49849 1-858)
T1 sequence: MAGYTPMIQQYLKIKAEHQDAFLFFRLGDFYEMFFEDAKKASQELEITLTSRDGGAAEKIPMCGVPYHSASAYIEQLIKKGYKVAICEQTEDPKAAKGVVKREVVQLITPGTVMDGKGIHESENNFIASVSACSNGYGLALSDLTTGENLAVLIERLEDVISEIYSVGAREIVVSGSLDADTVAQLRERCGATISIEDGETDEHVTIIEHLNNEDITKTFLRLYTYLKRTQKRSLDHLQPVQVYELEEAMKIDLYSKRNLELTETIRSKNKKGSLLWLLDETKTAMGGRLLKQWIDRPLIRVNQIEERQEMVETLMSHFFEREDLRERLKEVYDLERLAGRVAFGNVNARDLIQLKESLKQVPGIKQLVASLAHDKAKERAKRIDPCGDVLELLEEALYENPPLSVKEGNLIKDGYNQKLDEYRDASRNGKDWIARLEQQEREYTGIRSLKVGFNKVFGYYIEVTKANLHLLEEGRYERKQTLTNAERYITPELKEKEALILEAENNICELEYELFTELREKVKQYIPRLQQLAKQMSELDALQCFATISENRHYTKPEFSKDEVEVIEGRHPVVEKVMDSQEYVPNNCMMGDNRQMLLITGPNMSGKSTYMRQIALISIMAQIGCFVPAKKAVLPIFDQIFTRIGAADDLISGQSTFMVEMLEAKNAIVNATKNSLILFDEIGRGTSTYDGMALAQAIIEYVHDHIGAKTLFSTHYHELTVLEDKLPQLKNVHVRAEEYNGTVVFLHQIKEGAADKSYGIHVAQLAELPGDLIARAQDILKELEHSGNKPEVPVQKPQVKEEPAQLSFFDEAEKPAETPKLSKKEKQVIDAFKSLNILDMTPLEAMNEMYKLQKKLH

T2: Bacillus subtilis MutS (B. subtilis, UniProt P49849 1-858)
T2 sequence (looked up): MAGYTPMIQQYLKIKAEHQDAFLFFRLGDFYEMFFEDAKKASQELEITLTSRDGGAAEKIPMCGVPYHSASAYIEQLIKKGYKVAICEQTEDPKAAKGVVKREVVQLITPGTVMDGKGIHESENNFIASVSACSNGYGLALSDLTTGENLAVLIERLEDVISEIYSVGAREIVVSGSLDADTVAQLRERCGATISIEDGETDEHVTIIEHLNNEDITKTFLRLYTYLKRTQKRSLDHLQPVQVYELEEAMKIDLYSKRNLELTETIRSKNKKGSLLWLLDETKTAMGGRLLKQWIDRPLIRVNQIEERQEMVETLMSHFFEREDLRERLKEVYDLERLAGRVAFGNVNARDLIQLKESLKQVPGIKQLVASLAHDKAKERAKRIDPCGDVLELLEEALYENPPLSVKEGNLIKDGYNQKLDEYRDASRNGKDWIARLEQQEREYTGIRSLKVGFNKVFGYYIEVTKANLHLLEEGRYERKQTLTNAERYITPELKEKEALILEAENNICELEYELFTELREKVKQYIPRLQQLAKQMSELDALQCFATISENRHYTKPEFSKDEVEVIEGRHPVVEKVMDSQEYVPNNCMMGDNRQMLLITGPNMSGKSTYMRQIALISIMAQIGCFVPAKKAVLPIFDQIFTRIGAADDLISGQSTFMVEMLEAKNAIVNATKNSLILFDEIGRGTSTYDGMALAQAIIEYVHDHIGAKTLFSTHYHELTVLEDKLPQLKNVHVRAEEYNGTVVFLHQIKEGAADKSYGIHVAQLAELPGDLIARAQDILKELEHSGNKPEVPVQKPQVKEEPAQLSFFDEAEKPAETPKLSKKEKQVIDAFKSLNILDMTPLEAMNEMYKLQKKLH

T3: Bacillus subtilis MutSF30A (B. subtilis, UniProt P49849 1-858, F30A)
T3 sequence (looked up): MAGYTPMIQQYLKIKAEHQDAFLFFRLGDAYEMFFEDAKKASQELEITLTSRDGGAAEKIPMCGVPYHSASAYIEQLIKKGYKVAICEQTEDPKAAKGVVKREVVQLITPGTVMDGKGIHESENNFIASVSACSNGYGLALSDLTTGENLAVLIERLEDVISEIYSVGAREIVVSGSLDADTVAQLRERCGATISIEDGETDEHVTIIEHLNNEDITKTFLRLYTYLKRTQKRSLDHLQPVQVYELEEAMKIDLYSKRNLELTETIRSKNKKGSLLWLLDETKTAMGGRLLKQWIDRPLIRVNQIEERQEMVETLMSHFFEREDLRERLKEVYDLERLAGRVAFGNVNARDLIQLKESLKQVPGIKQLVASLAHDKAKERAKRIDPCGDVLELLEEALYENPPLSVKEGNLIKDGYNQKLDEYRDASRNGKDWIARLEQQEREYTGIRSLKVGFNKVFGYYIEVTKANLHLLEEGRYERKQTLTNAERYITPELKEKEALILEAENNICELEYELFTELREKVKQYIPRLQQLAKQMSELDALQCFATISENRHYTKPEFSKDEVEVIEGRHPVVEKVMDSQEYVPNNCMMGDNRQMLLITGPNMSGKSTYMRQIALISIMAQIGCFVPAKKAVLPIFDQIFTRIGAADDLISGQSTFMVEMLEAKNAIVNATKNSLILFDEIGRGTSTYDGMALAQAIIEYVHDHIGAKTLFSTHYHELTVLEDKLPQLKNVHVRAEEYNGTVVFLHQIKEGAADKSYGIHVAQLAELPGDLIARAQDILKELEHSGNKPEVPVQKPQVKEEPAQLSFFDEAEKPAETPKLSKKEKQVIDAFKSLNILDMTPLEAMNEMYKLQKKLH


Key:
MutS = molecular target: T1, MutS; test: 2-aminopurine fluorescence titration
Bacillus subtilis MutS = molecular target: T2, Bacillus subtilis MutS; test: far-Western, overlay or dot blot
[1] = molecular target: T3, Bacillus subtilis MutSF30A; test: far-Western, overlay or dot blot

Row | binding result (Bacillus subtilis MutS) | binding result [1] | Binder | Kd (MutS) [nM]
1 | – | – | 2-AP(+T) T-bulge duplex (dsDNA, 2-aminopurine at position 18 of strand 1 (written as A)) DNA 1: TAAAGGAAGTCGTCTATATATGGTATGACTAAGTGTA DNA 2: TACACTTAGTCATACCATTATAGACGACTTCCTTTA | 24
2 | binds | binds | Bacillus subtilis processivity clamp DnaN (natural protein, B. subtilis, UniProt P05649 1-378, looked up) MKFTIQKDRLVESVQDVLKAVSSRTTIPILTGIKIVASDDGVSFTGSDSDISIESFIPKEEGDKEIVTIEQPGSIVLQARFFSEIVKKLPMATVEIEVQNQYLTIIRSGKAEFNLNGLDADEYPHLPQIEEHHAIQIPTDLLKNLIRQTVFAVSTSETRPILTGVNWKVEQSELLCTATDSHRLALRKAKLDIPEDRSYNVVIPGKSLTELSKILDDNQELVDIVITETQVLFKAKNVLFFSRLLDGNYPDTTSLIPQDSKTEIIVNTKEFLQAIDRASLLAREGRNNVVKLSAKPAESIEISSNSPEIGKVVEAIVADQIEGEELNISFSPKYMLDALKVLEGAEIRVSFTGAMRPFLIRTPNDETIVQLILPVRTY | –

— publication PMC5938748 (Molecular microbiology, 2012)
